Measurements from the DeepSol protein solubility set.

Test: soluble on expression in E. coli; label from the status in PepcDB or PDB records

| Sequence | soluble on expression in E. coli |
| --- | --- |
| VLHQPPAMSSALGTTIRLTCTLRNDHDIGVYSVYWYQQRPGHPPRFLLRYFSQSDKSQGPQVPPRFSGSKDVARNRGYLSISELQPEDEAMYYCAMGARSTHVFGSGTQLTVLSAA | soluble |
| MYNLKNIYASITLYPHEINLVVSDNNNQFHVLYENSIANDELYTHAGITNKAKFKVVLNQLINNANDYLGFKLEKVIVVLAELVDDLEINRFKTDVFFTGYDFNHQDMLSSEKNRFLLKNRHINPNEVLDLVALNYRDLTTDKISKNFKYNCSYRANVIYYTTKNSLVKELKPFLKRNIIVKIDKIVTHHMVLAHSIKQINKNNLFVYLGEHTTDLMLFMDNALVDLVSEPFGRVNFLESDNDSENKALLEFLVDSTARIGDSGSIGMAYTDGSTYKEIRAVTIDDLIQSVNEKTKYLIDFINTNTEIFFQKYGFLPSTLLFYTKSKQLLNNFQLNQNLLSNHFKTVTIFKNEVQFVSRKYLLNCQTIALSWRQDQINVNPTSFALPFYSDKIEKQFKKSFLMLKVHTHINKLVQKLIK | soluble |
| MAHHHHHHMVMYDPAAPNNYRDVKVMWWKRAREDERKNDISRSLAAAAEAGSSPFDMPDMMRMAPRDELAYDILGGSGDTMSLHLSAEELHQRRVRQSAALGITTAMNLEREELEAAHKARVAAGMDRRGRIGQKLGKLMSVAATRENATKTNTTSDHVGDGINTSAGEMTPATTMATSTTTSLPGITAPLVFQRSELAAGGYVVREDVGALEKRKTHYGKPSSTILIRFVRDGPPVEVFDDTSNKNVGSGTLRNAFLENIQDLCGQCGVVRSLRYMVLDDGKRAALRARLENEREEVSAASADVETRLAREMIRVLVRFDTVANAFKALEMLQQRHGSNWDVCFFSTQLFDVGALGPAEGESLCCA | not soluble |
| MGSDKIHHHHHHVMARIHNRDWCLACTSSLKELPRHVYFRAYSLKGGTCVQGHEHVWWQFLFARNGLMQVQAGATTLTLPPDYGVWIPPGCVHTLWIGEEVELESLYIEPTAVAIQDQEPRVVMVDEFVRAFIHHGCTSIPVKYDEDGADGRKVKVLLDSLQSLPDAPFNLPFPTEPRLLEVCLTIQSAPHLAHTLDESAGLARMSSRTFTRHFLRATGLPYHTWRQRMRLLGSLEMLRSDITVTEVALTIGYSTPSAFTHAFKQLFGKSPSRFTRPEPK | not soluble |
| MIYKSIAERLRIRLNSADFTLNSLLPGEKKLAEEFAVSRMTIRKAIDLLVAWGLVVRRHGSGTYLVRKDVLHQTASLTGLVEVLKRQGKTVTSQVLIFEIMPAPPAIASQLRIQINEQIYFSRRVRFVEGKPLMLEDSYMPVKLFRNLSLQHLEGSKFEYIEQECGILIGGNYESLTPVLADRLLARQMKVAEHTPLLRITSLSYSESGEFLNYSVMFRNASEYQVEYHLRRLHPEKS | soluble |
| GSPNSTAEPTVAARPQQIDALRTLIRLGSLHTPMVVRTAATLRLVDHILAGARTVKALAARTDTRPEALLRLIRHLVAIGLLEEDAPGEFVPTEVGELLADDHPAAQRAWHDLTQAVARADISFTRLPDAIRTGRPTYESIYGKPFYEDLAGRPDLRASFDSLLACDQDVAFDAPAAAYDWTNVRHVLDVGGGKGGFAAAIARRAPHVSATVLEMAGTVDTARSYLKDEGLSDRVDVVEGDFFEPLPRKADAIILSFVLLNWPDHDAVRILTRCAEALEPGGRILIHERDDLHENSFNEQFTELDLRMLVFLGGALRTREKWDGLAASAGLVVEEVRQLPSPTIPYDLSLLVLAPAATGA | soluble |
| MTIYLVRHGESKSNYDNKHFRSYFCGQLDVPLTDTGTKSADDLCDYFKEKQIKHVYVSDLLRTQQTFEHIFPYDIASTTTPLLRERSLGVFEGEYKDEISANPKYEKYFNDPNFKDFRHSFSQKAPEGESYEDVYQRVEHFMNHVVNEDTQKDDIVIVAHQVVIRCLMVYFNKVSRAEAVDLKVENCKPYIIE | not soluble |
| MGSDKIHHHHHHMNIKDLQYYVSLTQLKNFSLVAAQFHVSQPTISAAIRRLETELKTQLLIRANPHLPVALTTTGIQVQRHANQILLEHQLMCQEVAHTTTDQLVIGMPPIIEINYFPRIASQLPQALFSQIQPISQGSLAALKGLKNGQLDLAVLAYLNEFTDTTIQLTTFDTQSFSIVVPTDDPLATNSQLQFRSLRHQHFVALKDNFVHRQAFRQLSHQNHVRPTIVFESNEIGSILNMVRQHVGIALLSNAVQLPAGLQRLPLTDAQAPTFNVGVAYRHSMTFSPTQADLIQRLTAAFQSVDWRAY | not soluble |
| MSLIQQQPIKPLANSQVCCSDFSQYPWIQLATTEDINFQLDKDSPIGHFSDGNSYFNAFKFAERSGKVQLRLSSLMINDSVAAPKLIALDHEFNVVSTTSLDQFDVKPSDAFTRTQFQLNFQLNAAKTPYFIIYSSNEYLGQSIKVKHPARIRAEELGEPMPMVTDPTYAYERFGKLKLSIKTLSLQADKQADQQPKVAIKSAQPETHTFYKEAIVEAVKTNDIPKALALLEEAKSLGIQDAQDTFVQALESQKEGHHHHHH | soluble |
| MGSDKIHHHHHHMAVLVTRPDERGQQLVDMLAKAGVVAIHLPLFRIESGAELNELPNKFAKLKNGDYVFAVSKSAVDFAFKTLTATGFVWRHDLHYFTVGQGTAQYFTATTEMPVHYPTAQENSEGLLQLNAMQDLSDKTVLILRGNGGRELFAEQAQQRGANVEIVECYRREPIVYNNAEQTSICKRAGIQTIVVTSAEILTQLVDFVPQNEHNWLKSCQLITVSERIAHLAEALGWQNVVISPRADNQTLLQTLLQCR | not soluble |
| MSFFVNRIWYGNHFLQWILVPFSWLYRIVIRTRRWYLQRFCQQLYPIPIIVVGNVTVGGVGKTPLVIEIAKKIQQKGLKVGIVSRGYKAAIKHFPYEVKLNDSAELVGDEPLMMARKINCPVVIAPKRNEAVRYLLDKHSVEIIISDDGLQHYKMGRSIEIVVIDGMRKLGNGFCLPAGPLREPDSRLKQVDFVIVNQGAAEGTYSMELIPKNIVRLSTQEEVSNDLFTSEVAAVAGIGNPQRFYSTLSQLGIKFNPYSYPDHHQFKPHDLNDIDLPVIMTEKDAVKCYSFSSDKLYYLPVEAKLNDSFWEAFWSHQQLQGYYLEHHHHHH | not soluble |
| AGKTLYDKLWEAHEVKRRDDGSSLIYIDRHIIHEVTSPQAFEGLRLANRKPWRIDANIATPDHNVPTTPERKGGIEAIVDQVSRLQVQTLDENCDEYGIVEFKMNDERQGIVHVISPEQGATLPGMTVVCGDSHTSTHGAFGALAHGIGTSEVEHVLATQCLVAKKMKN | not soluble |
| MRLLLAAPHSGAGKTTVSLALLLALRARGLRVQPFKVGPDYIDPTHLEKAAARRPYNLDGFFLDETGLLALFRHGARGADFALIEGVMGLFDGKDPRGEVGSTAQVARLLKAPVALVVDAKGMAGSIAPLALGFRDFHPGVRVVGVFANRVGSERHAEILKEALKAVGLPLLGWLPQDPALELPERHLGLVLAGEVAPPLEALRRAFRVDLEGVLRLAASAPPLPEARPFLPPRRPPRARVAYAWDKAFSFYYPEALELLEALGAELVPFSPLEDEALPKAHALLLGGGYPELFAERLSANVALREAIRRFPGPIVAECGGYMYLSQGLWVGERFFPMVGLVPGEARMAERPVLGYREVEALRDSPVARKGQAFKGHEFHYARLPASPSPAWRRLGGEEVEGYTDGRVLASFVHLYLPARPEGVERLLGLASRGKAAGASLEHHHHHH | not soluble |
| MQKELINEIIGEVKPKAIALFGSQAKGKAGKFSDYDLLIITKDEESRNKAEKFEKGKVEIHALTMRTALELIHKGDPFFTQIVKECKPIYGEFYIKFLREVAENVGKSKVVA | not soluble |
| MGSDKIHHHHHHDGMGLSQVYLTSMLEGRPLSFMKTPYIGLVKTHSANSWVTDSAAAGTALASGFKTNNGMINILPDGTVVPTIFEVAKTYGVRTGIVVTCRVTHATPAAFYAHVKSRDEENEIARQLVENETVDVVMGGGWANFLPKDLGGKRDDNLNLIELAKEKGYIYVKTREELSKISADSDKILALFAPSHLDPASSRKEQPMLYEMVEKALEILSKDDEPFFLMVEGSQIDWEAHDNDIYGVWKEVVEFDKAVQVALDFALKRGDTLVIVTADHETGGLGLSSGDYRVDVDKIRNFKKTTDWIMANYSPKDREKFKKAIEEYFGLTLSDEDLNRISMSKNPKIELGRILGEKVSVGWTTTTHSGTPVPIFAFGPGAENFTGFLDNTEIPRIIMKLTGYSLQYPLLKEPVTK | not soluble |
| GIALVLIAAGLGLARLLLGPEVVAALVQRGNLVQTVVASGHIETPYRVEIASQITGTVKDVLVKEGEQVHQGQQLVAIEASELQASVVQAEGAVAQAQARVRQLRELTKPAADEALKQAQANLLNAQAAYERASKLAASGYGTKATLDDATKNLDVARTQVRTAELQVFTTSPGGSDFVMAETQLGQALANLNTAQARLGYATIVAPRDGVLITRNVERGTVVQPGKALLVLAPAGDIQIVVQIDEKNLGQLALGQHAMASADAYPDKRFDATLSYINPSVDINRASVEIKLKVDDPPDYLRQDMTVSVDIATARRDDVVIVPARAVNDAAAAPYVLKASGGRAVRQPVKLGLRGVGFYEVIDGLVPGDRVIPLATGVKPD | soluble |
| MAHHHHHHMTADARTDDGGLRRAYTRSMPAVLRPLWLLEESMRDVQVQWEEIIEGVMVEDVSFSSVRAAVLHVERLASQLKAIKQELMPRLSHFSQKEEDSEQPFLRYCSCAAKPTVNGDNSICDLAQGEQTQAARLAARVWVWGVCVGTIMNDLELLSTSLSFAASTCLLEKFAEEVRLTEASTFFLGKDEGVASPLSDSDLLLACQLLYHLFTGDDAAAEMTCHRVLSLIDDCEERDDGKECRGCILSRLVRIAECVAAEDYGALQVLMKVDFFTGVDTLCSLPPLIIFFTQMMLDTVVHRQLVQGCFQNVWRPVINVDRPARDESPSVPSEAMMNSFCSSSRLSFTTKRRLMTCCAVFRESLPPRVPWPIPEDLMDRCFRMGL | not soluble |
| MDLAAHIDHTLLKPTATLEEVAKAAEEALEYGFYGLCIPPSYVAWVRARYPHAPFRLVTVVGFPLGYQEKEVKALEAALACARGADEVDMVLHLGRAKAGDLDYLEAEVRAVREAVPQAVLKVILETGYFSPEEIARLAEAAIRGGADFLKTSTGFGPRGASLEDVALLVRVAQGRAQVKAAGGIRDRETALRMLKAGASRLGTSSGVALVAGEGGTLGY | soluble |
| MGIDKELYKACETALKQCMGVKPGETVLVIADEPEREIGYHLWMKAKELGAEAIYVEILPRKMHGEEPPKPVAEAMKVADVVIAPTSKSITHTLAKKEACERGARVATLPGITREIFVRTMSADYEGMLELTNKIADVLDKGKEVHILTPLGTDLKFSIEGRKARRSTGIYRNPGECGNLPGAEAYIAPLEGTANGRVVIDGSMAGIGVLKEPIEIIVKDGFAEDIRGGEEAEKLREILSRYGKEARNIAEFGVGTNPKARISGNILEDEKVFGTVHIALGSNYDFGGKVKAPVHLDGIIKEPTVLIDGKYLFKDGNLVI | soluble |
| MESVTRIKVRYAETDQMGVVHHSVYAVYLEAARVDFLERAGLPYHRVEARGVFFPVVELGLTFRAPARFGEVVEVRTRLAELSSRALLFRYRVEREGVLLAEGFTRHLCQVGERAARIPEDIYRALSVLHLK | soluble |
| MGSDKIHHHHHHKPGREFYASDIRESMEKGDKLAILMVHFGSAYPEARTQVLDVMNKRVKEAFPDVEVRQAYSARSVVSRLRAQGVWVQLPADALVELRDQGFTHVIIQPTIIIEGVEMEAIRKEAEQRKGLFKDLRVGNPLLYDDADYEAVMKAVSSPSGVTKNGAKLLVAHGTYHASNSAYAKLGYMFQTKGMKDYYTGTREGFPTIENVGEQMRQAGHKRVQLIPFMFVLIRGTENTVTDFWQKGLRQQGFDVDIYLKPLGENPAIRSLFIDHIRFAMKYKRATIFDRKKLYTH | not soluble |
